Measured values as given in US20090191187A1 (published 2009).
Values joined by “and” are separate entries in the source; they are usually repeats but may differ in a detail not shown here. Identical values can stand only once.

T1: human interleukin-1 receptor on cells (MRC-5 human embryonic lung fibroblasts; human blood cells) (human, UniProt P14778 18-569)
T1 sequence (looked up): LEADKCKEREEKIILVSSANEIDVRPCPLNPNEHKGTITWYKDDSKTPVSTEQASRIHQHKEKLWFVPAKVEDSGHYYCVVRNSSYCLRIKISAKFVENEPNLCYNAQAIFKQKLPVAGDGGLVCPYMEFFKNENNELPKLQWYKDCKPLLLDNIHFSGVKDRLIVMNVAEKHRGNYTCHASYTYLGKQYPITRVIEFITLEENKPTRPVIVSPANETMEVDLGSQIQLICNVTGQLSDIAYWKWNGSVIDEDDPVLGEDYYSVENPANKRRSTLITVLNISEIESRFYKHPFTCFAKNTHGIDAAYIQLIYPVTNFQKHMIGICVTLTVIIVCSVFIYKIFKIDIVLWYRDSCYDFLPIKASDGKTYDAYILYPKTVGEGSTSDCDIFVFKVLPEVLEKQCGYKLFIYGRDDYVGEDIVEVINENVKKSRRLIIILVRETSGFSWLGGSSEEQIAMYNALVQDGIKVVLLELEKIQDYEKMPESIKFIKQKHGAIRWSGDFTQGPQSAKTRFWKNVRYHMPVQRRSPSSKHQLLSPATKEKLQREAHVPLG

T2: recombinant soluble human type 1 IL-1 receptor (extracellular domain, glycosylated) (human, UniProt P14778 21-333, N-glycosylated (from SF9 insect cells); biotinylated in the ELISA of Examples 2 and 4c)
T2 construct: also called hIL-1R; rshIL-1R
T2 sequence: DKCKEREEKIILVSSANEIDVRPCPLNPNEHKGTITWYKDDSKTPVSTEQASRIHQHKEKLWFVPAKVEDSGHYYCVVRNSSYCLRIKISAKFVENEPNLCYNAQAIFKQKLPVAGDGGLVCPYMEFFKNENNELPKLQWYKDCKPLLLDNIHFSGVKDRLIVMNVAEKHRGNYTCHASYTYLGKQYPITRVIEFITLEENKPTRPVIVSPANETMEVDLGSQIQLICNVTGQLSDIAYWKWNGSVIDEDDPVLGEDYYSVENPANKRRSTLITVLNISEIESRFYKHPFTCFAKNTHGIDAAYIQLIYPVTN


Tests used:
[1] = target: T1, human interleukin-1 receptor on cells …; assay: cell-based or functional assay
[2] = target: T1, human interleukin-1 receptor on cells …; assay: cell-based or functional assay; remark: listed apart in the source
[3] = target: T2, recombinant soluble human type 1 IL-1 …; assay: ELISA on biotinylated human IL-1R on streptavidin plates
Procedure: The relative immunactivity of the antibodies as compared to 2D8 antibody was determined by ELISA. A soluble biotinylated human IL-1R was coated at room temperature for one hour to 96-well-plates (precoated with streptavidin). After blocking with BSA the antibody was diluted and added to the wells and incubated at room temperature for two hours. The plates were washed three times and incubated with horse-radish-peroxidase (POD)-conjugated rabbit-anti-rat-IgG at room temperature for one hour. After further washing the amount of bound antibody was determined by addition of TM-Blue® ([…]) and measurement of the absorbance at 370 nm.

Binder | Bioassay (IC50 in relation to 2D8), Mean [1] | IC 50 for the inhibition of IL-8 secretion (h-IL1β stimulated MRC-5 cells) [2] | ELISA (absorbance at 370 nm in relation to 2D8), 1st experiment [3] | ELISA (absorbance at 370 nm in relation to 2D8), 2nd experiment [3] | ELISA (absorbance at 370 nm in relation to 2D8), mean [3] | Bioassay (IC50 in relation to 2D8), 1st experiment [1] | Bioassay (IC50 in relation to 2D8), 2nd experiment [1]
DEI2/4 (antibody, V domains shown, also called combination of HURDIVHv2 and HURDIVKv4) VH: QLQLQESGPGLVKPSQTLSLTCTVSGLSLTSNSITWVRQAPGQGLEWMGMIWSNGDTDYSTSLKSRLTISKDTSKSQVVLTMTNMDPVDTATYYCARYNYYFDYWGQGTLVTVSS VL: DIVLTQSPATLSLSPGERATLSCKASQNVDNRGVSYVHWYQQKPGQAPKLLIYKGSNLAFGVPARFSGSGSGTDFTLTISSLQPEDFATYYCQQSKGHPDTFGAGTKLELK | 2.3 relative to 2D8 | – | 1.5 relative to 2D8 | 1.8 relative to 2D8 | 1.7 relative to 2D8 | 2.5 relative to 2D8 | 2 relative to 2D8
DEI5/5 (antibody, V domains shown, also called combination of HURDIVHv5 and HURDIVKv5) VH: QLQLQESGPGLVKPSQTLSLTCTVSGLSLTSNSITWIRQPPGKGPEWMGMIWSNGDTDYSTSLKSRLTISKDTSKSQVVLTMTNMDPVDTATYYCARYNYYFDYWGQGTLVTVSS VL: DIVLTQSPATLSLSPGERATISCKASQNVDNRGVSYVHWYQQKPGQAPKLLIYKGSNLAFGVPARFSGSGSGTDFTLTISSLQPEDFATYYCQQSKGHPDTFGAGTKLELK | 4.6 relative to 2D8 | – | 3.1 relative to 2D8 | 3.4 relative to 2D8 | 3.3 relative to 2D8 | 5.2 relative to 2D8 | 3.9 relative to 2D8
DEI4/5 (antibody, V domains shown, also called combination of HURDIVHv4 and HURDIVKv5) VH: QLQLQESGPGLVKPSQTLSLTCTVSGLSLTSNSITWIRQPPGKGPEWMGMIWSNGDTDYNSAFTSRFTISRDNSKNTLYLQMNSLKTEDTAVYYCARYNYYFDYWGQGTLVTVSS VL: DIVLTQSPATLSLSPGERATISCKASQNVDNRGVSYVHWYQQKPGQAPKLLIYKGSNLAFGVPARFSGSGSGTDFTLTISSLQPEDFATYYCQQSKGHPDTFGAGTKLELK | 3 relative to 2D8 | – | 3 relative to 2D8 | 2.2 relative to 2D8 | 2.6 relative to 2D8 | 1.5 relative to 2D8 | 4.5 relative to 2D8
chimeric 2D8 (IgG1) (antibody) heavy: not shown light: DIVLTQAPVLAVSLEQRATISCKASQNVDNRGVSYVHWYQQKPRQQPKLLIYKGSNLAFGVPARFSGSGSRTDFTLTIDPVETDDFATYYCQQSKGHPDTFGAGTKLELKRTVAAPSVFIFPPSDEQLKSGTASVVCLLNNFYPREAKVQWKVDNALQSGNSQESVTEQDSKDSTYSLSSTLTLSKADYEKHKVYACEVTHQGLSSPVTKSFNRGEC | – | 4.7 pM and 0.71 ng/ml | – | – | – | – | –
HUM2/2 (antibody, V domains shown, Humanized variant of 2D8) VH: QVQLQESGPGLVKPSETLSLTCTVSELSLTSNSITWIRQPPGKGLEWIGMIWSNGDTDYNSAFTSRVTISRDTSKNQFSLKLSSVTAADTAVYYCARYNYYFDYWGQGTLVTVSS VL: EIVLTQSPATLSLSPGERATLSCKASQNVDNRGVSYVHWYQQKPGQAPRLLIYKGSNLAFGVPARFSGSGSRTDFTLTISSLEPEDFATYYCQQSKGHPDTFGQGTKVEIK | 1 relative to 2D8 | – | 1.3 relative to 2D8 | 1.6 relative to 2D8 | 1.4 relative to 2D8 | 0.9 relative to 2D8 | 1 relative to 2D8
HUM2/3 (antibody, V domains shown, also called combination of HUR HuVH v2 and HUR HuVK v3) VH: QVQLQESGPGLVKPSETLSLTCTVSELSLTSNSITWIRQPPGKGLEWIGMIWSNGDTDYNSAFTSRVTISRDTSKNQFSLKLSSVTAADTAVYYCARYNYYFDYWGQGTLVTVSS VL: EIVLTQSPATLSLSPGERATISCKASQNVDNRGVSYVHWYQQKPGQQPKLLIYKGSNLAFGVPARFSGSGSRTDFTLTISSLEPEDFATYYCQQSKGHPDTFGQGTKVEIK | 1.2 relative to 2D8 | – | 2.2 relative to 2D8 | 2.1 relative to 2D8 | 2.2 relative to 2D8 | 0.8 relative to 2D8 | 1.5 relative to 2D8

The next lines start with the values.

Bioassay (IC50 in relation to 2D8), Mean [1] | IC 50 for the inhibition of IL-8 secretion (h-IL1β stimulated MRC-5 cells) [2] | ELISA (absorbance at 370 nm in relation to 2D8), 1st experiment [3] | ELISA (absorbance at 370 nm in relation to 2D8), 2nd experiment [3] | ELISA (absorbance at 370 nm in relation to 2D8), mean [3] | Bioassay (IC50 in relation to 2D8), 1st experiment [1] | Bioassay (IC50 in relation to 2D8), 2nd experiment [1] | Binder
1 relative to 2D8 | 7.2 pM and 1.08 ng/ml | – | – | – | – | – | antibody 2D8 (rat monoclonal antibody against human interleukin-1 receptor, from hybridoma cell line MAK<h-IL-1RI>2D8, DSM ACC 2601) (antibody, V domains shown) VH: QLQLKESGPGLVQPSQTLSLTCTVSELSLTSNSITWIRQPPGRGLEWMGMIWSNGDTDYNSAFTSRLSISRDTSKSQVFLKMNSLQTEDSAMYFCARYNYYFDYWGQGVMVTVSS VL: DIVLTQAPVLAVSLEQRATISCKASQNVDNRGVSYVHWYQQKPRQQPKLLIYKGSNLAFGVPARFSGSGSRTDFTLTIDPVETDDFATYYCQQSKGHPDTFGAGTKLEL
2.4 relative to 2D8 | – | 1.5 relative to 2D8 | 2.6 relative to 2D8 | 2.1 relative to 2D8 | 3.3 relative to 2D8 | 1.4 relative to 2D8 | DEI2/8 (antibody, V domains shown, also called combination of HURDIVHv2 and HURDIVKv8) VH: QLQLQESGPGLVKPSQTLSLTCTVSGLSLTSNSITWVRQAPGQGLEWMGMIWSNGDTDYSTSLKSRLTISKDTSKSQVVLTMTNMDPVDTATYYCARYNYYFDYWGQGTLVTVSS VL: DIVLTQSPATLSLSPGERATLSCKASQNVDNRGVSYVHWYQQKPGQAPKLLIYKGSNLAFGVPSRFSGSGSGTDFTLTISSLQPEDFATYFCQQSKGHPDTFGAGTKLELK
2.8 relative to 2D8 | – | 1.4 relative to 2D8 | 1.8 relative to 2D8 | 1.6 relative to 2D8 | 2.7 relative to 2D8 | 2.8 relative to 2D8 | DEI2/9 (antibody, V domains shown, also called combination of HURDIVHv2 and HURDIVKv9) VH: QLQLQESGPGLVKPSQTLSLTCTVSGLSLTSNSITWVRQAPGQGLEWMGMIWSNGDTDYSTSLKSRLTISKDTSKSQVVLTMTNMDPVDTATYYCARYNYYFDYWGQGTLVTVSS VL: DIVLTQSPATLSLSPGERATLSCKASQNVDNRGVSYVHWYQQKPGQAPKLLIYKGSNLAFGVPSRFSGSGSGTDFTLTISSLQPEDFATYYCQQSKGHPDTFGAGTKLELK
2 relative to 2D8 | – | 2.1 relative to 2D8 | 2.2 relative to 2D8 | 2.2 relative to 2D8 | 3.2 relative to 2D8 | 0.7 relative to 2D8 | DEI1/8 (antibody, V domains shown) VH: QLQLQESGPGLVKPSQTLSLTCTVSGLSLTSNSITWVRQAPGQGLEWMGMIWSNGDTDYNSAFTSRFTISRDNSKNTLYLQMNSLKTEDTAVYYCARYNYYFDYWGQGTLVTVSS VL: DIVLTQSPATLSLSPGERATLSCKASQNVDNRGVSYVHWYQQKPGQAPKLLIYKGSNLAFGVPSRFSGSGSGTDFTLTISSLQPEDFATYFCQQSKGHPDTFGAGTKLELK
– | 5.1 pM and 0.77 ng/ml | – | – | – | – | – | chimeric 2D8 (IgG4) (antibody) heavy: not shown light: DIVLTQAPVLAVSLEQRATISCKASQNVDNRGVSYVHWYQQKPRQQPKLLIYKGSNLAFGVPARFSGSGSRTDFTLTIDPVETDDFATYYCQQSKGHPDTFGAGTKLELKRTVAAPSVFIFPPSDEQLKSGTASVVCLLNNFYPREAKVQWKVDNALQSGNSQESVTEQDSKDSTYSLSSTLTLSKADYEKHKVYACEVTHQGLSSPVTKSFNRGEC
